These results are taken from patent US11447754B2, “In vitro methods of chemical conversion using non-stereospecific glutathione lyases” (WISCONSIN ALUMNI RESEARCH FOUNDATION, priority 2017, dated 2022).

Numbering of substitutions follows the chain as printed. Names and notes keep the numbering of the source.

Substrate in data set [1]: COc1cc(C(=O)[C@@H](CO)Oc2ccccc2OC)ccc1O
The experiment in a line: Kinetics of the enzymatic cleavage of β(R)-MPHPV by BaeA (3:N14A). It counts as biochemical, Novosphingobium aromaticivorans. Conditions: other: β(R)-MPHPV into GS-HPV, 98 nM dimeric enzyme, 5 mM GSH, pH 8.0, 25° C. From the text:
(§1) To generate mutant 2:S14A, pVP302K/2873-H2872 was amplified by kinase phosphorylated primers “Saro2872-S14A_R” and “Saro2872-S14A_F”. To generate mutant 3:S15A, pVP302K/H2873-2872 was amplified by kinase phosphorylated primers “Saro2873-S15A_R” and “Saro2873-S15A_F”. To generate mutant 3:N14A, pVP302K/2873-H2872 was amplified by kinase phosphorylated primers “Saro2873-S15A_R” and “Saro2873-N14A_F”. These linear fragments were separately circularized using T4 DNA ligase to generate plasmids pVP302K/2873-H2872(S14A), pVP302K/H2873(S15A)-2872, and pVP302K/2873(N14A)-H2872, respectively.
(§2) Expression and purification of recombinant enzymes. Recombinant proteins were expressed using the plasmids described above in E. coli B834 containing plasmid pRARE2 (Novagen) grown for ˜25 hours at 25° C. in ZYM-5052 Autoinduction Medium containing kanamycin and chloramphenicol. Recombinant proteins were purified using a Ni^2+-NTA column as described in Example 1 above, except using gravity-flow columns instead of an FPLC system. After removal of His8-tags using Tev protease, recombinant proteins retained a Ser-Ala-Ile-Ala-Gly-peptide on their N-termini, derived from the linker between the protein and the Tev protease recognition site. Recombinant LigF1 was purified as previously described (Gall and Ralph et al. 2014).
(§3) Kinetics of the enzymatic cleavage of β(R)-MPHPV. Various concentrations of racemic MPHPV (equal amounts of the β(S)- and β(R)-stereoisomers) were combined with 5 mM GSH in RB. […] At specified time points, 200 μL of a reaction was removed and combined with 40 μL of 1 M HCl (Acros Organics) to stop the reaction before HPLC analysis to quantify GS-HPV formed. […]
(§4) HPLC analysis. Analysis and quantification of aromatic compounds were performed using an Ultra AQ C18 5 μm column (Restek) attached to a System Gold HPLC (Beckman Coulter) with running buffers and methods described in Example 1. The eluent was analyzed for light absorbance between 191 and 600 nm, and absorbances at 280 nm were used for quantification of aromatic metabolites by comparing peak areas to those of standards.

Data set [2] in a line: Kinetics of the enzymatic cleavage of β(R)-MPHPV into GS-HPV. The format is biochemical. The protocol:
(§5) Kinetics of the enzymatic cleavage of β(R)-MPHPV. Various concentrations of racemic MPHPV (equal amounts of the β(S)- and β(R)-stereoisomers) were combined with 5 mM GSH in RB. At time zero, 100 μL of a given enzyme in RB+5 mM GSH was combined with 1000 μL of the racemic MPHPV/GSH sample at 25° C. (both samples were equilibrated to 25° C. before mixing). Final concentrations of β(R)-MPHPV in each reaction were 0.0045, 0.010, 0.017, 0.068, or 0.13 mM. Final enzyme concentrations were 18 nM BaeA, 23 nM BaeA (2:S14A), 22 nM BaeA (3:S15A), 24 nM BaeA (2:S14A/3:S15A), 98 nM BaeA (3N14A), or 70 nM LigE (Saro_2405) (all concentrations are for the dimeric enzyme, except for LigE, which is the concentration of the monomer). At specified time points, 200 μL of a reaction was removed and combined with 40 μL of 1 M HCl (Acros Organics) to stop the reaction before HPLC analysis to quantify GS-HPV formed. Control experiments were allowed to proceed for several hours to ensure that only the β(R)-MPHPV in the reaction mixtures was being reacted with in these experiments.
as §4

Substrate in data set [3]: COc1cc(C(=O)[C@@H](CO)Oc2ccccc2OC)ccc1O
The experiment in a line: Kinetics of the enzymatic cleavage of β(R)-MPHPV by BaeA (3:S15A). It counts as biochemical, Novosphingobium aromaticivorans. Conditions: other: β(R)-MPHPV into GS-HPV, 22 nM dimeric enzyme, 5 mM GSH, pH 8.0, 25° C.
Source text: as §1, §2, §3, §4

Substrate in data set [4]: COc1cc(C(=O)[C@@H](CO)Oc2ccccc2OC)ccc1O
The experiment in a line: Kinetics of the enzymatic cleavage of β(R)-MPHPV by BaeA. The format is biochemical, Novosphingobium aromaticivorans. Conditions: other: β(R)-MPHPV into GS-HPV, 18 nM dimeric enzyme, 5 mM GSH, pH 8.0, 25° C. The protocol: as §2
as §5, with “Control experiments were allowed to proceed for several hours to ensure that only the β(R)-MPHPV in the reaction mixtures was being reacted with in these experiments.” left out
as §4

Substrate in data set [5]: COc1cc(C(=O)[C@@H](CO)Oc2ccccc2OC)ccc1O
The experiment in a line: Kinetics of the enzymatic cleavage of β(R)-MPHPV by BaeA (2:S14A). It counts as biochemical, Novosphingobium aromaticivorans. Conditions: other: β(R)-MPHPV into GS-HPV, 23 nM dimeric enzyme, 5 mM GSH, pH 8.0, 25° C.
Source text: as §1, §2, §3, §4

Substrate in data set [6]: COc1cc(C(=O)[C@@H](CO)Oc2ccccc2OC)ccc1O
The experiment in a line: Kinetics of the enzymatic cleavage of β(R)-MPHPV by LigE. It counts as biochemical, Novosphingobium aromaticivorans. Conditions: other: β(R)-MPHPV into GS-HPV, 70 nM enzyme (monomer), 5 mM GSH, pH 8.0, 25° C.
Source text: Enzyme purifications. Genes Saro_2595, E. coli yghU, E. coli yfcG, and SLG_04120 from Sphingobium sp. SYK-6 (codon-optimized for expression in E. coli) were individually cloned into plasmid pVP302K (Gall and Ralph et al. 2014) so that transcripts from the plasmids would be translated into proteins containing a His8-tag connected to the N-terminus via a tobacco etch virus (TEV) protease recognition site. Recombinant proteins were expressed in E. coli B834 (Wood 1966, Doherty et al. 1995) containing plasmid pRARE2 (Novagen, Madison, Wis.) grown for ˜24 h at 27° C. in ZYM-5052 Autoinduction Medium (Studier 2005) containing kanamycin and chloramphenicol. Recombinant proteins were purified essentially as described previously (Gall and Kim et al. 2014); see below for modifications to the procedure. After removal of His8-tags using TEV protease, recombinant proteins retained a Ser-Ala-Ile-Ala-Gly-peptide on their N-termini, derived from the linker between the protein and the TEV protease recognition site. Recombinant LigE and LigF1 from N. aromaticivorans were purified as previously described (Gall and Ralph et al. 2014).
Kinetics of the enzymatic cleavage of β(R)-MPHPV. Various concentrations of racemic MPHPV (equal amounts of the β(S)- and β(R)-stereoisomers) were combined with 5 mM GSH in RB. At time zero, 100 μL of a given enzyme in RB+5 mM GSH was combined with 1000 μL of the racemic MPHPV/GSH sample at 25° C. (both samples were equilibrated to 25° C. before mixing). […] At specified time points, 200 μL of a reaction was removed and combined with 40 μL of 1 M HCl (Acros Organics) to stop the reaction before HPLC analysis to quantify GS-HPV formed. […]
as §4

B1: Novosphingobium aromaticivorans BaeA (Saro_2872/Saro_2873 heterodimer, SEQ ID NO:40/SEQ ID NO:42) variant 3:N14A (Asn14 of Saro_2873 to Ala) (Novosphingobium … (protein)
chain 1: MSALLYHGEPNGASLTVLAALAETGLDIECRRIDLLAGERHSLPGIVDPVALDLSIEGEGPVLVIDGEAMTESVFLAQYLDEAAGGVGLQPTDAYARWEMMMWCRQITERLSPAAALLGNLATSQSAIAAIPAEDFAILAARIVSDDLRERWQALNDDAVNAAQVADSETKVAAAVDRCEKQLGDGREWLMGTFSIADLVTYSWLAGMEPLRPAAFADAPLVKAWLARTAARPCVQAALARATISEPLRAWAPGPEINRWG
chain 2: MDEVSLYHWEPNAASGKPMLALMEKGVPFSSHYIDMLQFDQHKPEYLAINPQGTIPAMTHNGQVLTESTAIMEYVNDRFDGPDLMPADAQDRWRVRWWMKFMDQWLGPSFSMIGWSVFVGPMVRQRDPAELAAAIDRIPLPERRTAWRKAINGDFSESEMAESRRRVGLGIAKLEEELGKRPYVGSNQYSLADINIFNSTYSLPISQPDLAGKDRTPNIMRWLKRVYTREAVKKTWAMGKTDLAHRYGLIMAEIEG
notes: His8 tag on Saro_2872 removed by TEV
Turning to B1, in data set [1], the Km (as a rule, the concentration of substrate that gives half-maximal velocity) was determined as 250 ± 60 µM; the kcat – broadly, the maximal rate divided by the concentration of active sites – stood at 0.14 ± 0.02 s⁻¹; the kcat/Km (as a rule, the second-order rate constant that governs catalysis at low substrate concentration) was 500 ± 200 M⁻¹ s⁻¹.

B2: BaeA (3:N14A): BaeA variant with Asn14 of Saro_2873 mutated into Ala (protein)
chain: B1 chain 2
Consider B2, for which, in data set [2] (β(R)-MPHPV), the “KM, fold higher than wild-type BaeA” value is around 12.5 fold and the “kcat, fold lower than (wild-type) BaeA” value is given as around 20 fold.

B3: Saro_2872: polypeptide from Novosphingobium aromaticivorans, SEQ ID NO:40; subunit of BaeA (protein)
chain: B1 chain 1
modifications: Novosphingobium aromaticivorans
notes: subunit of BaeA
On to B3, for which the “activity of the Saro_2872 subunit in BaeA relative to the Saro_2873 subunit” value in data set [2] (inferred from the 3:N14A variant) is on record as below 5%.

B4: Novosphingobium aromaticivorans BaeA (Saro_2872/Saro_2873 heterodimer, SEQ ID NO:40/SEQ ID NO:42) variant 3:S15A (Ser15 of Saro_2873 to Ala) (Novosphingobium … (protein)
chain 1: B1 chain 1
chain 2: B1 chain 2 with A14N, S15A
notes: His8 tag on Saro_2873 removed by TEV
Take B4: in data set [3], the Km was 100 ± 20 µM, the kcat stood at 2.4 ± 0.3 s⁻¹ and the kcat/Km was 23000 ± 6000 M⁻¹ s⁻¹.

B5: Novosphingobium aromaticivorans BaeA, wild type, heterodimer of Saro_2872 (SEQ ID NO:40) and Saro_2873 (SEQ ID NO:42) (Novosphingobium aromaticivorans DSM … (protein)
chain 1: B1 chain 1
chain 2: B1 chain 2 with A14N
notes: His8 tag removed by TEV, SAIAG left on the N-terminus
For the molecule B5, in data set [4], the Michaelis constant (Km) amounted to 20 ± 3 µM, the kcat came to 2.9 ± 0.3 s⁻¹ and the kcat/Km came to 150000 ± 30000 M⁻¹ s⁻¹.

B6: Novosphingobium aromaticivorans BaeA (Saro_2872/Saro_2873 heterodimer, SEQ ID NO:40/SEQ ID NO:42) variant 2:S14A (Ser14 of Saro_2872 to Ala) (Novosphingobium … (protein)
chain 1: B1 chain 1 with S14A
chain 2: B1 chain 2 with A14N
notes: His8 tag on Saro_2872 removed by TEV, SAIAG left on N-terminus
For the molecule B6, in data set [5], the Km stood at 22 ± 3 µM, the kcat came to 2.8 ± 0.2 s⁻¹ and the kcat/Km was found to be 130000 ± 20000 M⁻¹ s⁻¹.

B7: Novosphingobium aromaticivorans LigE (Saro_2405), wild type (Novosphingobium aromaticivorans DSM 12444) (protein)
chain: MAANNTITFYDLALSTGATISPFVWATKYALKHKGFDLDVVPGGFTGILERTGGKTERLPAIVDDGEFVLDSWGIVEYLDAKYPDRPVLIPHESVAATLKALDNWFWNAAVGPWMFCFCQDYRDLSLPQDHEYVTHSREKMLGRKLEEVQAGREERLPKISAALEPLRAALAQHQWLGGSSPNYADYRIMGGILFTASVCKTPVLANDDPLRDWIERCLDLYGGLGRHPGLFPLFGLEQREGDPDLFNRAAGQGGIYKRNTGPESTRAETQRITEGMKK
notes: E. coli expressed
Turning to B7, in data set [6], the Michaelis constant (Km) came to 7 ± 1 µM, the kcat turned out to be 0.68 ± 0.06 s⁻¹ and the kcat/Km came out at 100000 ± 20000 M⁻¹ s⁻¹.
